{"source": "patent US7541156B1", "about": "“Method of identifying antinociceptive compounds using protease activated receptor-2” (priority 2000, dated 2009)", "key": {"[1]": {"tested_on": "pancreatic afferent neurons / spinal segments T8-T10", "assay": "c-FOS expression in spinal cord segments after pancreatic intraductal injection", "assay_type": "in vivo, rat", "settings": "peptide 100 μM intraductal, followed 30 min later by Capsaicin 0.5 mg/kg; 2.5 hours", "experimental": "Intraductal (pancreatic duct) injection. To administer the necessary peptides directly into the rat pancreatic duct we followed a modified protocol, previously described by Kim et al. (1996). In brief, rats were anesthetized i.p. with nembutal sodium (Abbot Laboratories, Chicago, Ill.) (50 mg/kg body weight). The peritoneum was incised to expose the duodenum and the duodenal loop was pulled out. The pancreatic duct entering the duodenum was identified under dissecting microscope and a small niche was made into the duct with a 30-gauge needle. A polyethylene 10 tubing (0.61 mm outer diameter) (Becton Dickinson and Company, Franklin Lakes, N.J.) was guided into the duct and tied to secure its position. The common bile duct was ligated close to the liver to prevent entry of the injected substance into the liver. Similarly the duct was ligated near its entry into the duodenum. The position of the tube into the pancreatic duct was confirmed by freely flowing bile through the tubing. […] Thirty minutes later Capsaicin 0.5 mg/kg (total volume 500 μl) or vehicle (1×PBS, 10% ETOH, 1% Tween) was injected to half of the AcPep or CoPep injected rats. Three rats were included in each treatment group (n=3 for number of experiments). The tubing was carefully removed and bile flow from the liver into the duodenum was re-established. The abdominal cavity was closed with sutures. Rats were sacrificed 2.5 hrs after the initial injection.\nC-fos staining. Rats were anesthetized with sodium pentobarbital (50 mg/kg i.p.) and perfused with 200 mls PBS followed by 500 mls ice-cold freshly prepared 4% paraformaldehyde in PBS. Spinal cord (level T5-T13) was removed, post-fixed in 4% paraformaldehyde for 18 hrs at 4° C. and placed in PBS (pH 7.4) containing 30% sucrose for 24 hrs at 4° C. Frozen sections (40 μm) were cut on a cryostat and stored as floating sections in PBS at 4° C. Every third section was stained for c-fos with a rabbit polyclonal serum, 1:1000 dilution, (c-fos, Ab-5, Oncogene Research Products) utilizing manufacturer's protocol. Antibody staining was visualized using a biotinylated secondary antisera and Vectastain ABC peroxidase kit with DAB as substrate. Sections were mounted on Superfrost Plus slides (VWR Scientific, West Chester, Pa.) and dehydrated. The number of c-FOS immunoreactive (IR) neurons were counted in 10 randomly chosen sections per segment under brightfield illumination and then averaged.\n(§1) Statistics. Release data are presented as the mean± standard error of the mean (SEM) of wells from three separate experiments. […] Intraductal injection studies were analyzed using a repeated measure ANOVA and individual means were compared using a Newman-Keuls multiple comparison test. […]"}, "[2]": {"tested_on": "cultured adult rat thoracic DRG neurons", "assay": "CGRP release assay in cultured DRG neurons", "assay_type": "cell-based", "settings": "10 min pretreatment with peptide 10 μM, mean of wells, three experiments", "experimental": "Cell Culture. Primary cultures of rat DRG neurons were prepared from male adult Sprague Dawley rats (200-250 gm). Following enzymatic treatment and dissociation, neurons were spun through a percoll cushion (Hofbauer et al. 1998) and were plated at a density of 10,000-20,000 neurons/well of a 48 well tissue culture plate. Cultures were maintained in DME+10% FCS supplemented with penicillin/streptomycin, 150 μM uridine and 50 μM 5-fluoro-2-deoxyuridine (Nguyen et al. 1999). NGF (murine, recombinant, 2.5S; Promega, Madison, Wis.) was used at 50 ng/ml. Neurons were treated for five days before release experiments or Calcium-imaging studies were performed.\nCGRP release assay. Immunoreactive calcitonin gene-related peptide (IR-CGRP) release from DRG cultures was performed as described by Hingtgen et al. (1995). Briefly, neuron cultures were washed with Release Buffer (RB) (25 mM Hepes, pH 7.4, 135 mM NaCl, 3.5 mM KCl, 2.5 mM CaCl2, 1 mM MgCl2, 3.3 mM Glucose, 0.1% BSA, 1 μM phosphoamidon), and were incubated for 10 min at 37° C. in RB plus 0.1% ethanol (Capsaicin vehicle) to measure basal CGRP release. Fresh RB containing the appropriate concentration of activating peptide (AcPep) or control peptide (CoPep) was added for an additional 10 minutes. Peptide treatment was followed by a 10 minute incubation with an appropriate dose of Capsaicin or KCl. IR-CGRP released by neurons was measured by ELISA. Activating peptide and control peptide were prepared by standard solid phase synthesis procedures by the UTMB Core Protein Facility.\nCGRP Quantification. CGRP was quantified in a standard sandwich ELISA. In brief, 96-well “U” bottom microtiter ELISA plates (Dynex, Chantilly, Va.) were coated with affinity purified polyclonal rabbit antibody to rat CGRP (Peninsula Labs, Belmont, Calif.) at 3 μg/ml in 0.125M borate buffered saline (pH 8.1) (100 μl/well). The plates were incubated overnight at 37° C. The next day, the plates were washed three times with saline containing 0.05% Tween-20. Purified rat CGRP (Peninsula Labs) was used at a previously standardized concentration range of 25-1 ng/ml in a four-fold dilution to generate a standard curve. An equal volume of the sample was added in duplicate to a seventy-five μl/well of Tween-PBS (pH 7.1) and the plates were incubated for two hours on a shaker at room temperature. The plates were washed 3 times with Tween-PBS and 100 μl/well (0.2 mg/ml; 1:500 dilution) of in-house biotinylated, rabbit anti rat CGRP IgG (Peninsula Labs) was applied and incubated for two hours at room temperature. After three washes 150 μl of 1:1000 diluted streptavidine-horseradish peroxidase conjugate (Zymed, San Fransisco, Calif.) was added to each well and the plates were incubated for 90 min at room temperature. One-hundred-fifty μl/well of the substrate ortho-phenylene diamine dihydrochloride (Sigma Chemicals, St. Louis, Mo.) 0.4 mg/ml in citrate buffer (pH 4.9) was added after plates were washed three more times. Forty μl/100 ml of 30% H2O2 was added fresh to the citrate buffer just before adding to the wells to activate the coloring reaction. The reaction was stopped with 5N H2SO4 (50 μl/well) and the plates were read at 490 nm in an automated ELISA reader (Bio-Tek Instruments, Inc., Winooski, VE). The OD values were plotted against the CGRP standard curve and CGRP immunoreactivity was quantified using the appropriate formula and expressed as nanogram/ml.\nas §1, with “experiments. To compare the effects of activating peptide and control peptide on subsequent evoked release, an overall test based on the analysis of variance was performed (ANOVA).” for “experiments.”, “test. Significance levels were set at p<0.05.” for “test.”"}, "mouse Par2": {"target": "T1, mouse Par2 (Mus musculus, UniProt P55086)", "T1 construct": "host or cells: frog oocytes", "T1 sequence (P55086 26-399)": "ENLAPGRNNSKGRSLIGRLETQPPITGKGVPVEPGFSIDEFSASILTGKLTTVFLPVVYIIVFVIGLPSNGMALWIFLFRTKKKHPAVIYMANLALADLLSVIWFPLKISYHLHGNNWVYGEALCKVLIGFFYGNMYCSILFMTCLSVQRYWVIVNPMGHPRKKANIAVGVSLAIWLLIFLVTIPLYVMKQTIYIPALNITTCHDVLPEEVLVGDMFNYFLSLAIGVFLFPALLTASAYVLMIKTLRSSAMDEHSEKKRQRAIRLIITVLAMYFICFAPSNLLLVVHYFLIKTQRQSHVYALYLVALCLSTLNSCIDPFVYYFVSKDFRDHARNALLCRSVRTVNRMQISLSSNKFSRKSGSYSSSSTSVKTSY", "settings": "expressed in frog oocytes; cited from earlier work"}, "PAR-2 [3]": {"target": "T2, PAR-2 (Homo sapiens, UniProt P55085)", "T2 sequence (P55085 26-397)": "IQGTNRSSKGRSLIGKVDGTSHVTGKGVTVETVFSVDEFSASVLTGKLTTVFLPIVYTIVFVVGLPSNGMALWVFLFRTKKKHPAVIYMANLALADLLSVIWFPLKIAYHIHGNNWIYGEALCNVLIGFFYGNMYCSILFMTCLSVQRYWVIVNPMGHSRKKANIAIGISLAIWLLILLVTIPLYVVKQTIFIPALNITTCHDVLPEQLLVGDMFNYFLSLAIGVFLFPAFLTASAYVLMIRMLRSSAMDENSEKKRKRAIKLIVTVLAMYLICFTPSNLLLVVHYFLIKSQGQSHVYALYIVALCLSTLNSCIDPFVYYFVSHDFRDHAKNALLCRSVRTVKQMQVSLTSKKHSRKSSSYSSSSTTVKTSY", "settings": "Blackhart et al. 1996; cited from earlier work"}, "PAR-1": {"target": "T3, PAR-1 (Homo sapiens, UniProt P25116)", "T3 sequence (P25116 22-425)": "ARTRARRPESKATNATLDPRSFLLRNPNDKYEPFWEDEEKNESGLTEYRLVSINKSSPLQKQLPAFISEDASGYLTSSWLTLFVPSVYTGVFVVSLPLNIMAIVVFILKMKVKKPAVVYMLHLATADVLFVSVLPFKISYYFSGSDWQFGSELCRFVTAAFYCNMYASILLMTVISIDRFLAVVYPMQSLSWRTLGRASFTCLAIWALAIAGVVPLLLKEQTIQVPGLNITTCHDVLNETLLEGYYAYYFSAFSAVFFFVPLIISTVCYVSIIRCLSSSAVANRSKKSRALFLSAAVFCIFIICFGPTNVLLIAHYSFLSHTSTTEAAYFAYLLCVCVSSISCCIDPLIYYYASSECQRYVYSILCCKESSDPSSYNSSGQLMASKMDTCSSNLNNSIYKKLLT", "settings": "Blackhart et al. 1996; cited from earlier work"}, "PAR-2 [4]": {"target": "T4, PAR-2 (Rattus norvegicus, UniProt Q63645)", "T4 construct": "assessing the response of primary neuronal cultures to trypsin and AcPep; endogenous in cells; host or cells: primary cultures of adult Sprague-Dawley rat DRG neurons", "T4 sequence (Q63645 26-397)": "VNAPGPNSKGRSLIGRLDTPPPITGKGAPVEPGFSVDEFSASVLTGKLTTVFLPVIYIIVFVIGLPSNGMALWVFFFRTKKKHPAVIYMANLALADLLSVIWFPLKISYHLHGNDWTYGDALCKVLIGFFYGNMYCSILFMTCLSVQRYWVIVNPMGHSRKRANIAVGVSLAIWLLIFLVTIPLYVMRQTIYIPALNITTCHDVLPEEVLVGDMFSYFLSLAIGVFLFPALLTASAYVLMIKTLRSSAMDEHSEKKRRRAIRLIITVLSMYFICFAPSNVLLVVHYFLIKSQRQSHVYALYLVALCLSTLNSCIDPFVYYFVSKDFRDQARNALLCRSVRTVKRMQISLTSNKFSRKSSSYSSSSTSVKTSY", "assay": "Intracellular Ca2+ response of primary neuronal cultures", "assay_type": "cell-based", "settings": "primary neuronal cultures of adult rat DRGs", "from_the_text": "In the results which follow, it is shown that activated proteases can have direct effects on sensory neurons, mediated by specific receptors. PAR-1 and PAR-2 are present in rat DRGs (Young et al. 2000). The presence of one of these receptors, PAR-2, in sensory neurons is first confirmed by finding evidence of mRNA and protein expression in adult rat thoracic DRGs. The functional implications of PAR-2 expression are then examined by assessing the response of primary neuronal cultures to trypsin and AcPep. Both agonists increased intracellular Ca^2+ confirming previously reported findings that a functional PAR 2 receptor is present in adult rat DRGs (Steinhoff et al. 2000). Trypsin stimulates both PAR-1 and PAR-2 and therefore an increase in intracellular Ca^2+ can be caused by activation of the two different receptors. […] Therefore the increased intracellular Ca^2+ response to AcPep reflects specific PAR-2 mediated activation.\nCell Culture. Primary cultures of rat DRG neurons were prepared from male adult Sprague Dawley rats (200-250 gm). Following enzymatic treatment and dissociation, neurons were spun through a percoll cushion (Hofbauer et al. 1998) and were plated at a density of 10,000-20,000 neurons/well of a 48 well tissue culture plate. […]"}, "[5]": {"target": "T5, protease activated receptor-2 (PAR-2) of adult rat thoracic dorsal root ganglion neurons (rat, UniProt Q63645 37-397)", "T5 sequence (looked up)": "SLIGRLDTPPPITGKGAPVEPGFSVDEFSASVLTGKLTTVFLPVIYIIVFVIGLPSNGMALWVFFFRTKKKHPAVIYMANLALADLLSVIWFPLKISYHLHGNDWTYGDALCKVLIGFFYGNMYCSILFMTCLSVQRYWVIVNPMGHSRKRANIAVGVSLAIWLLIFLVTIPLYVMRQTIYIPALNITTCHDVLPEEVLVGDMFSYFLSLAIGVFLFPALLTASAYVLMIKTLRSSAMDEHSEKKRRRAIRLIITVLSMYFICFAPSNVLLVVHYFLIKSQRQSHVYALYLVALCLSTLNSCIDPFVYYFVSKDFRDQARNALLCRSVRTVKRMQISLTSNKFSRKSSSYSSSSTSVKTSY", "assay": "cell-based or functional assay"}}, "note": "No end group written: not given here."}
{"molecule": "RLGILS-amide (RLGILS-NH2) [CoPep]", "values": [{"measurement": "Capsaicin-evoked c-FOS expression in segments T8-T10", "setting": "[1]", "result": "as strong a stimulant as AcPep alone"}, {"measurement": "CGRP release induced by Capsaicin (50 nM)", "setting": "[2]; then Capsaicin 50 nM for 10 min in presence of peptide", "result": 4.77, "unit": "ng/mL"}, {"measurement": "CGRP release induced by KCl (70 mM)", "setting": "[2]; then KCl 70 mM for 10 min in presence of peptide", "result": 1.8, "unit": "ng/mL"}]}
{"molecule": "thrombin", "values": [{"measurement": "concentration without receptor activation", "setting": "mouse Par2", "result": "> 100", "unit": "nM"}]}
{"molecule": "trypsin: serine protease that stimulates both PAR-1 and PAR-2", "values": [{"measurement": "activation of PAR-2", "setting": "PAR-2 [3]", "result": "stimulates"}, {"measurement": "activation of PAR-1", "setting": "PAR-1", "result": "stimulates"}, {"measurement": "intracellular Ca2+", "setting": "PAR-2 [4]", "result": "increased"}, {"measurement": "receptor activation, in words", "setting": "mouse Par2", "result": "could be activated with nanomolar concentrations"}]}
{"molecule": "SLIGRL", "note": "[PAR-2 activating peptide (AcPep)]", "values": [{"measurement": "augmentation of Capsaicin-evoked CGRP release (multiple of the basal release), AcPep 10 µM", "setting": "[5]", "result": "~2", "unit": "fold"}, {"measurement": "augmentation of KCl-evoked CGRP release (multiple of the basal release), AcPep 10 µM", "setting": "[5]", "result": 1.5, "unit": "fold"}]}
